Ends that are not written are not given here.
Columns and labels:
α-thrombin [1] = target: T1, α-thrombin (UniProt P00734 364-622); assay: SPR; competition: BIAcore X, 25°C; biotinylated HCII 1-75 on streptavidin-coated chip; peptides combined with 250 nM thrombin immediately before flowing over the chip; Ki from IC50 and the KD of 340 nM; details: both partners purified
α-thrombin [2] = target: T1, α-thrombin; assay: cell-based or functional assay
α-thrombin [3] = target: T1, α-thrombin; assay: ELISA; competition: HCII 1-75 immobilised on microtiter wells; competitor peptides added with 5 nM α-thrombin; ratio of absorbance with and without competitor; IC50 by linear regression of log-transformed plots; details: both partners purified

B1: HCII 54-75 (synthetic peptide containing residues 54-75 of human HCII and a nonapeptide N-terminal tag) (peptide)
chain: GEEDDDYLDLEKIFSEDDDYID
modifications: not fully specified (N-terminus); ends and bridges not checked; also: nonapeptide N-terminal tag, unmodified amino terminus
- Ki (α-thrombin [1]): 8.5 µM
- Ki of equimolar HCII 54-75 and HCII 1-53 (α-thrombin [1]): 13 µM
- fold reduction of the apparent second-order rate constant of inhibition of 14 nM thrombin by 140 nM plasma-derived HCII with 55 μg/mL standard heparin, 250 μM peptide (Figure 5A) (α-thrombin [2]): 1.6 fold
- fold reduction of the apparent second-order rate constant of inhibition of thrombin by plasma-derived HCII with 1.4 μM dermatan sulfate, 250 μM peptide (Figure 5B) (α-thrombin [2]): 1.6 fold
- IC50 (α-thrombin [3]): 110 µM
